Test results from patent publication US7745574B2, “Compounds that regulate apoptosis” (The Burnham Institute, priority 2005, dated 2010).
[ ]: non-standard residue; d: D form. Ahx = NCCCCCC(=O)O

Key:
[1] = system: H460 lung cancer cells; experiment: Apoptosis in H460 lung cancer cells; format: cell-based
Method: Bcl-2 siRNAs and antisense oligonucleotides-The target siRNA SMARTpools for Bcl-2 and Bak and the siRNA oligonucleotide for Nur77 (5'-[…] NO: 67) were purchased from Dharmacon Research Inc. Target or control siRNA were transfected at a final concentration of 200 nM into cells at 40% confluency using Oligofectamine reagent (Invitrogen) according to the manufacturer's recommendations. After 48 h, cells were analyzed. Bcl-2 antisense oligonucleotide targeting Bcl-2 and negative control oligonucleotides were obtained from Calbiochem. […] The percentages of apoptotic cells were determined by counting 300 GFP-positive cells, scoring cells having nuclear fragmentation and/or chromatin condensation. Cell culture. […] HEK293T embryonic kidney cells were grown in DME medium supplemented with 10% FBS. Jurkat and Jurkat cells stably expressing Bcl-2 were kindly provided by Dr. John Reed, and they were maintained in RPMI1640 medium.

[2] = molecular target: T1, GST-Bcl-2 (Homo sapiens, UniProt P10415); experiment: Immunoprecipitation of purified GST-Bcl-2 by anti-Bcl-2/BH3 antibody; format: biochemical
T1 construct: made in house
T1 sequence (P10415 whole entry): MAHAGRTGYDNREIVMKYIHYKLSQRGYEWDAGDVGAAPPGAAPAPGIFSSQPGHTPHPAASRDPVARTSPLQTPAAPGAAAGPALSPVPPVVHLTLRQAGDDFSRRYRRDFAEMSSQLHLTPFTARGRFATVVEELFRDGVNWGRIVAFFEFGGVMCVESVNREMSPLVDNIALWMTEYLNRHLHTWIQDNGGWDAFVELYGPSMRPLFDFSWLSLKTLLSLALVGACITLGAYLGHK

[3] = system: MDA-MB435 breast carcinoma cells; experiment: MDA-MB435 tumors in SCID mice; format: in vivo
Method: Animal studies. Female SCID mice (6-week-old) (Tacomic) were injected with 10^6 MDA-MB435 breast carcinoma cells. Tumors were palpable on day 7. On days 10 and 13, test peptides (620 μg in 50 μL PBS) were injected into the tumor areas of 5 mice. Tumor volumes (1×w^2) were determined using calipers. No weight changes were observed. Established tumors in control mice were injected with test peptides and tumor tissues were excised and sectioned after 3 days. Tissues were fixed (10% buffered formalin), then rapidly paraffin-embedded. Apoptosis was detected by the TUNEL assay.

[4] = system: H460 lung cancer cells; experiment: Apoptosis in H460 lung cancer cells; format: cell-based; settings: H460 cells; peptides conjugated with CPP, 10 μM
[5] = molecular target: T2, Bcl-2 (Homo sapiens, UniProt P10415); experiment: Competition assay of Nur77/ΔDBD binding with Bcl-2; design: expressed in transfected cells; host or cells: HEK293T
Method: Nur77/Bcl-2 interaction assays—Reporter gene assays using NurRE-tk-CAT in CV-1 cells, and GST pull-down assay were described previously (Li, et al. 2000 Science 289:1159-1164). For the mammalian two-hybrid assays, CV-1 cells were co-transfected with pcDNA-Gal4TAD-Nur77 or pcDNA-Gal4TAD-Nur77/ΔDBD and pcDNA-Gal4 DBD-Bcl-2/ΔTM along with a luciferase reporter gene driven by four copies of the Gal-4-binding site. The cells were harvested and reporter gene activity was measured. For Co-IP assays, HEK293T cells were transiently transfected with various expression plasmids using a modified calcium phosphate precipitation method (Wu et al, 1997) in the presence of caspase inhibitors (zVAD-fmk) to prevent degradation of Nur77 protein due to apoptosis. Cells were suspended in lysis buffer (50 mM Tris-HCl, PH7.4; 150 mM NaCl; 20 mM EDTA; 1% NP-40; 1 mM PMSF; 50 μg/ml Leupeptin; […] Aprotinin; 0.1 mM Na3VO4; and 1 mM DTT). Cells extracts were cleared by incubation with the Protein A/G plus Agarose beads (Santa Cruz) and then incubated with appropriate antibody and 30 μl of Protein A or G plus Agarose beads overnight at 4° C. […] Immunoreactive products were detected by chemiluminescence with an enhanced chemiluminescence system (ECL) (Amersham).
Target sequence in this assay (P10415 whole entry, the tested form may be a part): as the sequence (P10415 whole entry) above

[6] = molecular target: T2, Bcl-2; experiment: Bcl-2 conformational change, anti-Bcl-2/BH3 antibody staining of HEK293T cells transfected with Bcl-2; format: cell-based; design: expressed in transfected cells; host or cells: HEK293T
Method: Such a Bcl-2 conformation is recognized by an anti-Bcl-2 antibody raised against the Bcl-2 BH3 domain. To determine whether NuBCP-9 induced a Bcl-2 conformational change, flow cytometric assays were conducted which HEK293T cells transfected with Bcl-2 were exposed to NuBCPs and subsequently stained with the anti-Bcl-2/BH3 antibody.
Target sequence in this assay (P10415 whole entry, the tested form may be a part): as the sequence (P10415 whole entry) above

[7] = molecular target: T2, Bcl-2; experiment: Immunoprecipitation of endogenous Bcl-2 by anti-Bcl-2/BH3 antibody in treated cells; format: cell-based; design: precipitated endogenous Bcl-2 in cells treated with L-NuBCP-9-r8 or D-NuBCP-9-r8; endogenous in cells
Target sequence in this assay (P10415 whole entry, species assumed, the tested form may be a part): as the sequence (P10415 whole entry) above

Substance: acetyl------------FSRSLHSLLGXrrrrrrrr-amide (Ac-FSRSLHSLLG[Ahx][dR][dR][dR][dR][dR][dR][dR][dR]-NH2; SMILES CC(=O)N[C@@H](Cc1ccccc1)C(=O)N[C@@H](CO)C(=O)N[C@@H](CCCNC(=N)N)C(=O)N[C@@H](CO)C(=O)N[C@@H](CC(C)C)C(=O)N[C@@H](Cc1c[nH]cn1)C(=O)N[C@@H](CO)C(=O)N[C@@H](CC(C)C)C(=O)N[C@@H](CC(C)C)C(=O)NCC(=O)NCCCCCC(=O)N[C@H](CCCNC(=N)N)C(=O)N[C@H](CCCNC(=N)N)C(=O)N[C@H](CCCNC(=N)N)C(=O)N[C@H](CCCNC(=N)N)C(=O)N[C@H](CCCNC(=N)N)C(=O)N[C@H](CCCNC(=N)N)C(=O)N[C@H](CCCNC(=N)N)C(=O)N[C@H](CCCNC(=N)N)C(N)=O) [NuBCP-9-r8]
- apoptotic function after Bcl-2 antisense oligonucleotides ([1]; Bcl-2 antisense oligonucleotides): attenuated
- apoptotic effect after transfection of Bcl-2 siRNA ([1]; H460 cells, Bcl-2 siRNA vs control GFP siRNA): inhibited
- precipitation of GST-Bcl-2 protein by anti-Bcl-2/BH3 antibody [2]: strong precipitation
- growth of tumors ([3]; SCID mice, 620 μg injected into tumor areas on days 10 and 13, vs control NuBCP-9/AA-r8): dramatically suppressed
- apoptosis of tumor cells in vivo ([3]; TUNEL assay): potently induced
- apoptotic effect [4]: potently induce apoptosis
- binding of Nur77/ΔDBD with Bcl-2 in presence of peptide [5]: abrogated
- Bcl-2 immunofluorescence by anti-Bcl-2/BH3 antibody ([6]; flow cytometry): strong Bcl-2 immunofluorescence
- Bcl-2 staining by anti-Bcl-2/BH3 antibody ([6]; fluorescence microscopy): strongly stained
- Bcl-2 immunofluorescence in the presence of caspase inhibitor zVAD ([6]; zVAD present): observed
- precipitation of endogenous Bcl-2 by anti-Bcl-2/BH3 antibody [7]: precipitated
